The assay concerns the target T1, soluble CD4 (D1D2 domains, residues 1 to 186).
T1 construct: also called sCD4; source: Expi293F, purified (StrepTrap HP, SEC)
Description: cryo-EM structure; Fab, soluble SOSIP trimer and sCD4 incubated at a molar ratio of 3.6:1:3.6 Fab/Env/sCD4 at room temperature for 4 h; single-particle cryo-EM of the ternary complex. Conditions: both partners purified.

B1: CG10 Fab (Fab, V domains shown)
VH: QVQLKQSGTELVRPGTSVKMSCKAAGYTFTDYWIGWVKQRPGHGLEWIGDFYPGGDYTLYSENFMGKASLTADTSSNTAYMQLSSLTSEDSAIYYCARGHYYGYSYAWFAYWGQGTLVTVSS
VL: DIVLTQSPASLAVSLGQRATISCKASQSVDYDGDSYMNWYQQKPGQPPKLLIYAASNLESGIPARFSGSGSGTDFTLNIHPVGEEDAATYYCQQSHEDPWTFGGGTMLEIK
notes: source: Expi293F, purified (Ni-NTA, SEC)
Regarding B1, the binding result is given as “binds”.
